Positions count from the first letter of the chain named.
How the values were obtained:
Experiment in all cases: SPR, antibody captured, C2 as analyte;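 further: biacore SPR at 37 °C, anti-C2 mAbs captured via goat anti-human IgG on CM5 chips, double-referenced sensorgrams fit to a 1:1 kinetic or steady-state model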
human C2 K711A = target: T1, human C2 K711A (human, UniProt P06681 21-752)
T1 sequence: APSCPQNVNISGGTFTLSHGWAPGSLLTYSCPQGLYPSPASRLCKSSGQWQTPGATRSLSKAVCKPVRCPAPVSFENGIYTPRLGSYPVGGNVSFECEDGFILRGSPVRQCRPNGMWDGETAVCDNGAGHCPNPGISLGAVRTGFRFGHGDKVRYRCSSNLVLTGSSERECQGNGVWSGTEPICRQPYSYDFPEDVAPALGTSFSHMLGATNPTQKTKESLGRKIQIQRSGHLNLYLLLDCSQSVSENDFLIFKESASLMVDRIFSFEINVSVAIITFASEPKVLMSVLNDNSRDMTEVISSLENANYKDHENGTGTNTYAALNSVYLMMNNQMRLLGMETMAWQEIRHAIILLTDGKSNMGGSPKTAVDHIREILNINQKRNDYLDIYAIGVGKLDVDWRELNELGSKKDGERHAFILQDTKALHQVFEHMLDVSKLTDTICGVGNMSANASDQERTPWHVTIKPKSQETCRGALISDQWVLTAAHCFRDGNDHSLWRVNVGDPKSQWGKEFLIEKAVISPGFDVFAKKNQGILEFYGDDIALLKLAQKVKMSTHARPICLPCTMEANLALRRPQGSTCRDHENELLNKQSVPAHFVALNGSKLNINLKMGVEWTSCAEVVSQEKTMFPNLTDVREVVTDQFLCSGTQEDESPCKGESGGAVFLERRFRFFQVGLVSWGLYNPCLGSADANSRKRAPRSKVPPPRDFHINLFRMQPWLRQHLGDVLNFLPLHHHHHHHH

human C2 E324A = target: T2, human C2 E324A (human, UniProt P06681 21-752)
T2 sequence: T1 sequence with E304A, A691K

human C2 T483A = target: T3, human C2 T483A (human, UniProt P06681 21-752)
T3 sequence: T1 sequence with T463A, A691K

human C2 K676S = target: T4, human C2 K676S (human, UniProt P06681 21-752)
T4 sequence: T1 sequence with K656S, A691K

B1: RF16-226 (antibody, human IgG4 S228P, lambda)
heavy: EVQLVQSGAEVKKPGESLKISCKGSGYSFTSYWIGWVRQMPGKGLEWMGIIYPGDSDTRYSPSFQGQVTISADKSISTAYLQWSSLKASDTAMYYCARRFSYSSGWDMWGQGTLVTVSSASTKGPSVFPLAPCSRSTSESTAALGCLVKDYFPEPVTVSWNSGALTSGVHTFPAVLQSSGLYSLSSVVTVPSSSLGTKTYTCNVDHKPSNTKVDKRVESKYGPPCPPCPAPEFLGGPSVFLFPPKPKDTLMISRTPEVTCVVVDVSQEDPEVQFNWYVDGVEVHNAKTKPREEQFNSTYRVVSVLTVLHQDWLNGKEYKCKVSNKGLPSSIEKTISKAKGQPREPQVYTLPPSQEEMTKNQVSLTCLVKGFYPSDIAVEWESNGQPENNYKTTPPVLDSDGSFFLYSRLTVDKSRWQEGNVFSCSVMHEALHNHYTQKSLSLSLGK
light: SYELTQPPSVSVSPGQTARITCSGDALTSKYVAWYQQKSGLAPLLVIYEDTRRPSGIPAKFSGSSSGSVATLTISGAHGDDEADYYCYSTDASGHQRVFGGGTKLTVLSQPKAAPSVTLFPPSSEELQANKATLVCLISDFYPGAVTVAWKADGSPVKAGVETTKPSKQSNNKYAASSYLSLTPEQWKSHRSYSCQVTHEGSTVEKTVAPTECS
notes: pH-dependent anti-C2 antibody from a phage display library; also called WT
Kd (human C2 K711A): 49.6 nM | Kd (human C2 E324A): 12.2 nM | Kd (human C2 T483A): 5.5 nM | Kd (human C2 K676S): 16.3 nM

— US20220332804A1 (CSL INNOVATION, published 2022)
